Measurements taken from patent US9107936B2, “Antagonists of GRASP55 for use as a medicament” (Institut National de la Sante et de la Recherche Medicale …, priority 2012, dated 2015).
Where no end group is shown, it is not given here.

How the values were obtained:
[1] = target: T1, GST-PDZI′ (Grasp55 residues 1 to 107) (Mus musculus, UniProt Q99JX3); experiment: HTRF measurement of interaction of biotinylated C-terminal peptides with GST-PDZI′; type: binding, murine; settings: for which Grasp55 construct's interaction with JAM-C is inhibited: NINDS library screening, PDZI′ and PDZI′+II′ recombinant GST proteins; for interaction of biotinylated peptide with PDZI′ GST construct: peptide 1.9*10^−7M
T1 construct: GST fusion proteins encompassing residues 1 to 107; made in house; host or cells: bacteria Rosetta
Protocol: (§1) To refine and extend the results obtained by yeast two hybrid, an Homogenous Time Resolved Fluorescence (HTRF) assay have been set-up to measure interactions of various peptides with recombinant GST proteins corresponding to different regions of Grasp55.
(§2) Briefly, the technique consisted in incubating 18 h at 4° C. the biotinylated-Cterminal peptides (SEQ ID NO: 26 to 34) at the concentration of 1.9*10^−7M with the GST-fusion protein, the terbium-coupled anti-GST antibody (8*10^−10M each) and the d2-coupled streptavidin (4*10^−8M) (both from Cisbio), in 0.1 mL of Hepes 0.05M, NaCl 0.15M BSA 0.1% pH 7.2. In some experiments, competing peptide or chemicals were added to the incubation mix at the indicated concentration. After incubation, microtiter plates (Costar #3693) were red using PolarScan Omega (BMG Labtech) equipped for HTRF measurements. Upon excitation at 320 nm, a 620 nm fluorescence emission is produced by the donor terbium that in turn excites a 665 nm light emission by a Streptavidin-d2 (acceptor) bound to the Biotinylated interacting Peptide if the latter is interacting with the donor. The […] R ratio is obtained and a Delta F is computed as: [(Rsample−RNSB)/RNSB]*100 where RNSB is the Non Specific Background signal determined in incubates where the GST-fusion protein was omitted.
(§3) Having shown that HTRF measurement of interaction is a reliable technology to identify inhibitors of interaction. A screen of a chemical compound library provided by MRCt has been initiated. The screening consisted in the same HTRF technique used in Example 7 except that compounds from the library were added in the incubation mix at the final concentration of 6.6×10^−5M. […] Since such a result could be either due to a specific inhibition of the JAM-C peptide interaction to the recombinant Grasp55 PDZ domains or to a non-specific inhibition of the FRET signal between donor and acceptor in HTRF technology, the twenty selected compounds have been further tested. Indeed, compounds could potentially interfere with the binding of the anti-GST antibody terbium-labeled to the GST of the fusion protein, the binding of Streptavidin-d2 to the biotinylated peptide or promote strong interference at 320, […] or 665 nm. Thus, the putative hits obtained were screened for non-specific inhibition. To this end, the GST-PDZI′+II′ recombinant protein was biotinylated using Sulfo-NHS Biotin according to manufacturer instructions (Pierce). This allows designing an HTRF assay in which the d2-coupled streptavidin (acceptor) and the terbium-coupled anti-GST antibody are directly bound to recombinant GST-PDZI′+II′ protein and produce DeltaF signal independently of the biotinylated peptide. The twenty selected compounds were thus tested in this assay to eliminate those giving false inhibition of the HTRF signals while inhibitors of Biotinylated peptide interaction with GST-PDZI′+II′ should not interfere in this assay.

[2] = target: T2, GST-PDZI′+II′ (Grasp55 residues 1 to 208) (Mus musculus, UniProt Q99JX3); experiment: HTRF measurement of interaction of biotinylated C-terminal peptides with GST-PDZI′+II′; type: binding, murine; settings: for interaction of biotinylated peptide with PDZI′+II′ GST construct: peptide 1.9*10^−7M
T2 construct: and 1 to 208 corresponding respectively to the PDZI′, PDZII′ and PDZI′+II′ constructs; made in house; host or cells: bacteria Rosetta
Protocol: as §1, §2, §3

JAM-C = target: T3, JAM-C (Mus musculus, UniProt Q9D8B7); experiment: yeast two hybrid interaction of Grasp55 constructs with JAM-C; type: binding, murine; parameters: key: Symbols “+++” and “−” indicates the growth of yeast on selective media as shown in the FIGURE 13; Symbols “+++” and “−” indicates the growth of yeast on selective media as shown in the FIGURE 13
T3 construct: amino-acids 263 to 310 of murine JAM-C; expressed in transfected cells; host or cells: AH109 yeast strain
T3 sequence (Q9D8B7 263-310): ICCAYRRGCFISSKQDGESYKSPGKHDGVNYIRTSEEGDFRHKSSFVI
From the text: (§4) The different GRASP55 constructs were cloned into pGBT9 GW vector (Ga14 DNA-binding domain fusion vector, Trp) as well in the pACT2 GW vector (Gal4 DNA-activation domain fusion vector, Leu) using the Gateway technology (Invitrogen). Plasmids were then co-transformed in AH109 yeast strain (/MATa, trp1-901, leu2-3, 112, ura3-52, his3-200, gal4/A, /gal80/A, /LYS2::GAL1//UAS//-GAL1//TATA//-HIS3, GAL2//UAS//-GAL2//TATA//-ADE2, URA3::MEL1//UAS//-MEL1//TATA//-lacZ, MEL1/) in accordance with the previously described transformation protocol (Chien et al. 1991. Proc Natl Acad Sci USA. 88:9578-82). Following co-transformation with the two vectors containing the different constructs (as well as the empty vector to test self activation), yeasts were plated onto Synthetic Complete (SC) medium minus Leucine (−L), minus Tryptophan (−W), minus Histidine (−H) and incubated at 30° C. for 4 to 5 days. All yeast media were prepared as previously described.
(§5) In examples 2, the inventors have previously shown that interaction between Grasp55 and C-terminal part of JAM-C requires the peptidic sequence between residues 1 to 160 of Grasp55 (PDZI+II) but cannot occur with residues 1 to 79 of Grasp55 (PDZI) by yeast two hybrid and ELISA assay (FIGS. 2 and 8). In the present example, the interaction sites between JAMs or metalloproteinases involved in JAM regulation and Grasp55 have been mapped using new constructs. To this end, yeast two-hybrid and GST fusion proteins encompassing residues 1 to 107, 108 to 208, and 1 to 208 corresponding respectively to the PDZI′, PDZII′ and PDZI′+II′ constructs have been generated. The former PDZII construct (residues 80 to 160) have also been used to test interaction with the C-terminal sequences of ADAM 10 (of sequence SEQ ID NO: 41) and ADAM 17 (of sequence SEQ ID NO: 42) known to regulate JAM-A and JAM-C release (Table 1). GST fusion proteins were produced and yeast two-hybrid assay was performed as previously described in example 1.

JAM-C ΔPDZbm = target: T4, JAM-C ΔPDZbm (Mus musculus, UniProt Q9D8B7); experiment: yeast two hybrid interaction of Grasp55 constructs with JAM-C ΔPDZbm; type: binding, murine; parameters: key: Symbols “+++” and “−” indicates the growth of yeast on selective media as shown in the FIGURE 13; Symbols “+++” and “−” indicates the growth of yeast on selective media as shown in the FIGURE 13
T4 construct: amino-acids 263 to 310 of murine JAM-C; expressed in transfected cells; host or cells: AH109 yeast strain
T4 sequence (Q9D8B7 263-307 limits assumed): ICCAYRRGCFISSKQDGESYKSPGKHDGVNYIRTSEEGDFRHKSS
From the text: as §4, §5

ADAM10 = target: T5, ADAM10 (Mus musculus, UniProt O35598, DEL741-741); experiment: yeast two hybrid interaction of Grasp55 constructs with ADAM10 C-terminal sequence; type: binding, murine; parameters: key: Symbols “+++” and “−” indicates the growth of yeast on selective media as shown in the FIGURE 13; Symbols “+++” and “−” indicates the growth of yeast on selective media as shown in the FIGURE 13
T5 construct: expressed in transfected cells; host or cells: AH109 yeast strain
T5 sequence (O35598 with tags, fused parts or gaps DEL741-741): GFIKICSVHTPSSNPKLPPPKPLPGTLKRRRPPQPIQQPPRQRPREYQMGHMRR
From the text: as §4, §5

ADAM17 = target: T6, ADAM17 (Mus musculus, UniProt Q9Z0F8, A775V/P752S); experiment: yeast two hybrid interaction of Grasp55 constructs with ADAM17 C-terminal sequence; type: binding, murine; parameters: key: Symbols “+++” and “−” indicates the growth of yeast on selective media as shown in the FIGURE 13; Symbols “+++” and “−” indicates the growth of yeast on selective media as shown in the FIGURE 13
T6 construct: expressed in transfected cells; host or cells: AH109 yeast strain
T6 sequence (Q9Z0F8 693-827 P752S/A775V): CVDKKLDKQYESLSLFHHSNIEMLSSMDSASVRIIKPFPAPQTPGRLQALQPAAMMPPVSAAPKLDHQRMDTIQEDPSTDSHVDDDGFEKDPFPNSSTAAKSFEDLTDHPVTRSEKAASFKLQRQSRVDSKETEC
From the text: as §4, §5

B16F10 cells = experiment: wound healing assay (cell migration); type: cell-based, mouse; settings: siRNA, 48 h post-transfection, measured over 6 h; sicontrol 167±13; Mean+/−SEM
Protocol: Transient transfections were performed on a 50% confluent monolayer of B16F10 cells with either 10 nM of siRNA or 5 μg of shRNA against luciferase used as a control or shRNA against GRASP55 in Lipofectamine RNAimax (Invitrogen). Transfection efficiency was monitored at 24 h by qRT-PCR and Western blots for the expression of GRASP55 transcript or protein. For selection of stable transfectants, cells were grown in DMEM containing 10 μg/ml of puromycine (Sigma Aldrich) starting 48 h after transfection.
For in vitro wound healing assays, 80% confluent monolayers of wild-type B16F10 cells or B16F10 cells transfected with various siRNA or shRNA were grown in both chambers of Ibidi culture inserts with defined cell free gaps. Cells were subjected to serum starvation for 24 h, before wounds were created by removing Ibidi culture inserts that define cell gaps of 400 μm. The wound healing was carried out for 8 h in complete DMEM medium and was recorded at various times after wounding. Analysis of wound closure was performed using Metamorph software and is expressed as mean speed per minute.

[3] = competition with unlabelled JAM-C peptide

With `N.N.O=C([O-])C1(C(=O)[O-])CCC1.[Pt+2]` [Carboplatin, cis-Diammine(1,1-cyclobutanedicarboxylato)platinum(II)] the “which Grasp55 construct's interaction with JAM-C is inhibited” value [1] was “preferentially inhibit the interaction of JAM-C with PDZI′”.

For `CCN(CC)C(=S)SSC(=S)N(CC)CC` [Disulfiram, 1,1′,1″,1′″-[disulfanediylbis(carbonothioylnitrilo)]tetraethane], the “which Grasp55 construct's interaction with JAM-C is inhibited” value [1] was “only with PDZI′+II′”.

`O=c1oc2c(O)c(O)cc3c(=O)oc4c(O)c(O)cc1c4c23` [Ellagic acid, 2,3,7,8-Tetrahydroxy-chromeno[5,4,3-cde]chromene-5,10-dione] was tested, and the “which Grasp55 construct's interaction with JAM-C is inhibited” value [1] was “inhibit interaction with PDZI′ and PDZI′+II′”.

With “JAM-A: biotinylated C-terminal peptide of JAM-A (SQPSTRSEGEFKQTSSFLV; also: biotinylated)” the “interaction of biotinylated peptide with PDZI′ GST construct” value [1] was “confirmed”, the “AppAff for GST-PDZI′+II′ compared with GST-PDZI′” value [2, 3] was “higher AppAff” and the “apparent affinity (AppAff) compared with JAM-C” value ([2]; competition with unlabelled JAM-C peptide, GST-PDZI′ and GST-PDZI′+II′) was “AppAff of JAM-C is equal to AppAff of JAM-A”. For the same molecule, the “interaction of biotinylated peptide with PDZI′+II′ GST construct” value (from here on “interaction … with PDZI′+II′ GST construct”) [2] was “confirmed”.

In the case of “JAM-C: biotinylated C-terminal peptide of JAM-C (NYIRTSEEGDFRHKSSFVI; also: biotin)”, the “interaction of biotinylated peptide with PDZI′ GST construct” value [1] was “confirmed”, the “AppAff for GST-PDZI′+II′ compared with GST-PDZI′” value [2, 3] was “higher AppAff” and the “interaction … with PDZI′+II′ GST construct” value [2] was “confirmed”.

For “PDZII′: Grasp55 construct, residues 108 to 208”, the “interaction with JAM-C (yeast growth on selective media)” value (JAM-C) was “−”, the “interaction with JAM-C ΔPDZbm (yeast growth on selective media)” value (JAM-C ΔPDZbm) was “−” and the “interaction with ADAM10 (yeast growth on selective media)” value (ADAM10) was “−”. For the same molecule, the “interaction with ADAM17 (yeast growth on selective media)” value (ADAM17) was “−”.

For “PDZI′ + II′: Grasp55 construct, residues 1 to 208”, the “interaction with JAM-C (yeast growth on selective media)” value (JAM-C) was “+++”, the “interaction with JAM-C ΔPDZbm (yeast growth on selective media)” value (JAM-C ΔPDZbm) was “−” and the “interaction with ADAM10 (yeast growth on selective media)” value (ADAM10) was “−”. For the same molecule, the “interaction with ADAM17 (yeast growth on selective media)” value (ADAM17) was “−”.

With “PDZI′: Grasp55 construct, residues 1 to 107” the “interaction with JAM-C (yeast growth on selective media)” value (JAM-C) was “+++”, the “interaction with JAM-C ΔPDZbm (yeast growth on selective media)” value (JAM-C ΔPDZbm) was “−” and the “interaction with ADAM10 (yeast growth on selective media)” value (ADAM10) was “−”. For the same molecule, the “interaction with ADAM17 (yeast growth on selective media)” value (ADAM17) was “−”.

For “siGRASP55#01: siRNA targeting Grasp55, SEQ ID NO: 6, 5′CGUCAUGAAUGAGUCUGAATT 3′, from Ambion (chemistry not given here)”, the mean velocity (B16F10 cells) was 82 ± 4 nm/min.

With “siGRASP55#1: siRNA targeting Grasp55, SEQ ID NO: 7, 5′AAGUGAUCAUCACACCAAATT 3′, from Ambion (chemistry not given here)” the mean velocity (B16F10 cells) was 95 ± 8 nm/min.

“ΔPDZbm: control biotynilated JAM-C peptide lacking the three terminal amino-acids (SEQ ID NO: 31) (NYIRTSEEGDFRHKSS; also: biotinylated)” was tested, and the “interaction … with PDZI′+II′ GST construct” value [2] was “no signal over the background”.
